The supplement of paper PMC10567573

B1: DVL3 (parent)
chain: YNPHPGFPELGYSYGGGSASSQHS

Variants of: B1
Assay: protein stability index of a GFP-peptide fusion (GPS, HEK-293T) (PSI 1-6); higher = more stable
Details: c terminus: a fixed tail appended
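Note: lentivirally expressed fusions sorted by FACS into six bins by GFP to DsRed ratio, PSI derived from sequencing read proportions per bin multiplied by bin number.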

Row | Variant | protein stability index
1 | YNPHPGFNELGYSYGGGSASSQHS [P8N] | 3
2 | YNPHPGFYELGYSYGGGSASSQHS [P8Y] | 2.33
3 | YNPHPGFDELGYSYGGGSASSQHS [P8D] | 3.37
4 | YNPHPGFQELGYSYGGGSASSQHS [P8Q] | 2.67
5 | YNPHPGFKELGYSYGGGSASSQHS [P8K] | 2.38
6 | YNRHPGFPELGYSYGGGSASSQHS [P3R] | 3.17
7 | YNTHPGFPELGYSYGGGSASSQHS [P3T] | 3.08
8 | YNSHPGFPELGYSYGGGSASSQHS [P3S] | 2.67
9 | YNMHPGFPELGYSYGGGSASSQHS [P3M] | 3.01
10 | YNFHPGFPELGYSYGGGSASSQHS [P3F] | 2.7
11 | YNQHPGFPELGYSYGGGSASSQHS [P3Q] | 3.05
12 | YNPHPLFPELGYSYGGGSASSQHS [G6L] | 2.48
13 | YNPHPKFPELGYSYGGGSASSQHS [G6K] | 3.05
14 | YNPHPNFPELGYSYGGGSASSQHS [G6N] | 2.93
15 | YNPHPEFPELGYSYGGGSASSQHS [G6E] | 3.84
16 | YNPHPFFPELGYSYGGGSASSQHS [G6F] | 2.42
17 | YNPHPMFPELGYSYGGGSASSQHS [G6M] | 2.74
18 | YNPHPHFPELGYSYGGGSASSQHS [G6H] | 2.67
19 | YNPHPYFPELGYSYGGGSASSQHS [G6Y] | 2.17
20 | YNPHPVFPELGYSYGGGSASSQHS [G6V] | 2.7
21 | YNPHPGFPELGYSYGGGSASSFHS [Q22F] | 2.88
22 | YNPHPGFPELGYSYGGGSASSIHS [Q22I] | 2.33
23 | YNPHPGFPELGYSYGGGSASSYHS [Q22Y] | 2.4
24 | YNPHPGFPELGYSYGGGSASSDHS [Q22D] | 3.41

Row | Variant | protein stability index
25 | YNPHPGFPELGYSYGGGSASSLHS [Q22L] | 1.67
26 | YNPHPGFPELGYSYGGGSASSWHS [Q22W] | 2.06
27 | YNPHPGFPELGYSYGGGSASSHHS [Q22H] | 2.73
28 | YNPHPGFPELGYSYGGGSASSTHS [Q22T] | 3.69
29 | YNPHPGFPELGYSYGGGSASSGHS [Q22G] | 2.62
30 | YNPHPGFPELGYSYGGGSASSRHS [Q22R] | 2.58
31 | YNPHPGFPELGYSYGGGSASSEHS [Q22E] | 2.85
32 | YNPHPGRPELGYSYGGGSASSQHS [F7R] | 2.86
33 | YNPHPGWPELGYSYGGGSASSQHS [F7W] | 2.14
34 | YNPHPGAPELGYSYGGGSASSQHS [F7A] | 2.6
35 | YNPHPGSPELGYSYGGGSASSQHS [F7S] | 2.59
36 | YNPHPGEPELGYSYGGGSASSQHS [F7E] | 2.7
37 | YNPHPGVPELGYSYGGGSASSQHS [F7V] | 3.01
38 | YNPHPGFPEMGYSYGGGSASSQHS [L10M] | 2.04
39 | YNPHPGFPEKGYSYGGGSASSQHS [L10K] | 3.05
40 | YNPHPGFPERGYSYGGGSASSQHS [L10R] | 3.64
41 | YNPHPGFPEFGYSYGGGSASSQHS [L10F] | 2.92
42 | YNPHPGFPETGYSYGGGSASSQHS [L10T] | 2.98
43 | YNPHPGFPELGYSYGGGSESSQHS [A19E] | 2.92
44 | YNPHPGFPELGYSYGGGSDSSQHS [A19D] | 3.01
45 | YNPHPGFPELGYSYGGGSVSSQHS [A19V] | 2.03
46 | YNPHPGFPELGYSYGGGSLSSQHS [A19L] | 2.17
47 | YNPHPGFPELGYSYGGGSISSQHS [A19I] | 2.3
48 | YNPHPGFPELGYSYGGGSKSSQHS [A19K] | 2.94

Row | Variant | protein stability index
49 | YNPHPGFPELGYSYYGGSASSQHS [G15Y] | 1.82
50 | YNPHPGFPELGYSYIGGSASSQHS [G15I] | 2.63
51 | YNPHPGFPELGYSYLGGSASSQHS [G15L] | 2.24
52 | YNPHPGFPELGYSYAGGSASSQHS [G15A] | 2.43
53 | YNPHPGFPELGYSYTGGSASSQHS [G15T] | 3.05
54 | YNPHPGFPELGYSYWGGSASSQHS [G15W] | 2.3
55 | YNPHPGFPELGYSYFGGSASSQHS [G15F] | 2.54
56 | YNPHPGFPELGYSYGGGSASSQHL [S24L] | 2.62
57 | YNPHPGFPELGYSYGGGSASSQHF [S24F] | 2.14
58 | YNPHPGFPELGYSYGGGSASSQHK [S24K] | 2.76
59 | YNPHPGFPELGYSYGGGSASSQHD [S24D] | 3.13
60 | YNPHPGFPELGYSYGGGSASSQHP [S24P] | 3.36
61 | YNPHPGFPELGYSYGGGSASSQHV [S24V] | 2.41
62 | YNPHPGFPELGYSYGGGSASSQHT [S24T] | 1.78
63 | YNPHPGFPELGYSYGGGSASSQHW [S24W] | 2.03
64 | YNPHPGFPELYYSYGGGSASSQHS [G11Y] | 2.66
65 | YNPHPGFPELTYSYGGGSASSQHS [G11T] | 2.76
66 | YNPHPGFPELRYSYGGGSASSQHS [G11R] | 3.24
67 | YNPHPGFPELPYSYGGGSASSQHS [G11P] | 2.29
68 | YNPHPGFPELDYSYGGGSASSQHS [G11D] | 2.82
69 | YNPHPGFPELWYSYGGGSASSQHS [G11W] | 2.29
70 | YNPHPGFPELSYSYGGGSASSQHS [G11S] | 2.71
71 | YNPHPGFPELGYSYGGVSASSQHS [G17V] | 1.63
72 | YNPHPGFPELGYSYGGQSASSQHS [G17Q] | 2.87

Row | Variant | protein stability index
73 | YNPHPGFPELGYSYGGNSASSQHS [G17N] | 2.6
74 | YNPHPGFPELGYSYGGYSASSQHS [G17Y] | 2.23
75 | YNPHPGFPELGYSYGGRSASSQHS [G17R] | 2.82
76 | YNPHPGFPELGYSYGGPSASSQHS [G17P] | 2.62
77 | YNPHPGFPELGYSYGGDSASSQHS [G17D] | 2.72
78 | YNPHPGFPELGYSYGGCSASSQHS [G17C] | 3.22
79 | YNPHPGFPELGYSYGGTSASSQHS [G17T] | 2.85
80 | YNPHPGFPELGYSYGGHSASSQHS [G17H] | 2.15
81 | YNPHPGFPELGYSYGGGSAWSQHS [S20W] | 1.95
82 | YNPHPGFPELGYSYGGGSADSQHS [S20D] | 3.09
83 | YNPHPGFPELGYSYGGGSAMSQHS [S20M] | 2.46
84 | YNPHPGFPELGYSYGGGSAGSQHS [S20G] | 2.97
85 | YNPHPGFPELGYSYGGGSAVSQHS [S20V] | 3.12
86 | YNPHPGFPELGYSYGGGSACSQHS [S20C] | 2.88
87 | YNPHPGFPELGYSYGGGSAQSQHS [S20Q] | 2.66
88 | YNPHPGFPELGYSYGGGSARSQHS [S20R] | 2.73
89 | YNPQPGFPELGYSYGGGSASSQHS [H4Q] | 2.56
90 | YNPEPGFPELGYSYGGGSASSQHS [H4E] | 2.7
91 | YNPFPGFPELGYSYGGGSASSQHS [H4F] | 2.16
92 | YNPAPGFPELGYSYGGGSASSQHS [H4A] | 2.06
93 | YNPKPGFPELGYSYGGGSASSQHS [H4K] | 3.61
94 | YNPYPGFPELGYSYGGGSASSQHS [H4Y] | 2.35
